Assay results as given in the DeepSol protein solubility set.

Experiment: soluble on expression in E. coli; label from the status in PepcDB or PDB records

Sequence	soluble on expression in E. coli
MTASSPNRARTSLAAYASAGPVSLPAGSTRTVASGTSSRTRSAYASRVTASRSSAKAARSAVRRSRLRSSSPSASSCLGRWLRLAGYSRVPVPPASRTAATVCVTARSPGGWSACRRVRRRGPNACLRGASDRVHPGCGDLKGVGSKHRYVSHRNTRGDGYTTMSDLSDTAQEVHDDLSEHVDATVDDVEARLEKLVSEYKVPVDEARRSVENHYLDEAGLDRDDLAGGGGNDTVEVEDVDEAEQWVDITAKVVELWEPRSDSVGQVGLLGDPTGTIKFTKWAKSDLETLDEGQVYRLGNVVTDEYQGRYSVKLNKTTSIEAVDEEFEVGDNEDEVAGALVDVQSGSGLIKRCPEEDCTRVLQNGRCNEHGEGDGEFDLRIKGVLDDGTDVHEVIFDEEATEALTGIGLEEAKQMAKDALDTTVVADEMRATILGKYYRVTGPTFGRYVLANDTELLTTRPDTESVLIRARSILEHHHHHH	not soluble
MGKLEDICDQYLSRKKEQDKVIEAVERCLKKGYDYEKLKDRVQEAISDPQKARKVISAVCDHYPQLRKRTRTDRDGEDRDRKRDRTDDRRKPDASVPAAVAEPQKPAEQSIEERLRAKEMMYKAQQEIEETKRKMAIAAGTLQPKAALAQAKTQMVAPGGKSLSLGRDEATMLMTHSMDKKSRMEELKARLARTTVMAKIDAMVGNSGAGVMAPLPEAVQQAEKKVQQQITKESKEPEKLIEYLDPRIQARTADRRRRGFNFHEKGEFEKLANKQRAMAKLERLQNEVSSAAQSTGISSAVKLAMVTPTGTAKMENGVPDIEWWDMLVLDKVNYDEIPAENDMERYSQTVSELVEHPISMRAPTEPLTQQYLKVYLTTKEKKKIRRQNRKEVLKEKTEKIRLGLEKAPEPKVKISNLMRVLGNEAIQDPTKMEAQVRKQMAERLKKHETLNAERKLTEDQKRAKKTKKLSEDTSTAVNVSVYRVKSLAHPSKKFKVETNAKQLQMSGAIMMHKAQNVIVVEGGPKQQKFYKNLMINRIKWSDEIIGQKKDAEKDAPGERNLCEMIWEGQVKRRNFRDFTVHTATLEKQAREFFEKHGVAQYWDLCYSTTVLLEGQDILPTA	not soluble
MGSSHHHHHHGKTIFVIVPTNEEQVAFLEALAKQDELNFDWQNPPTEPGQPVVILIPSDMVEWFLEMLKAKGIPFTVYVEEGGSENLYFQGGGGGGFVPNWYQHPDPALKYADDMEVYDYYQQYEAAKKAAREASTSSKKTAATSPALPRAKPHVTIA	soluble
MINLRWPLNWLKLQSSHGQRLNSQLNLIHSRKWIDFDEQIVGTWKLASSENCPNFIEWFGIEKKKSNYGYYNDLTQAKLNENLVFKMNYNNIVGIPKLFPHMSEKTVRENRHIKTTDDRSLKLTIDRYIDMGKLNVTMELKVNEGKHVCTCKLVYDRVYY	not soluble
MGSDKIHHHHHHAACSNDDEPGIDKGGQKGELIDAISIAFTSSSAPATRADKGEIEGVGTENNVYVAYLFAKENDPQHEGAKVGDWTVKRVAGDSNTDDKDVAAAIGEGDVATPGTKKNMCTFNGVRQGDSVYVVVNDPQMTLATAQTLAHQGDKSEAAIRAYISNLSKSYLNDLTVTKDGTQGKKYIMAGVSAIPTNPNIPNGSTVKVSIPLNRELAKVFFNASVTTNPVYEAYGKMAIKDAVWENPTGTKDPDGIVVVRIPRRVSPFTAQARDWYFPQSADATAKDWDVEGWLKAFAGESQSVPGTAEVPGTTLALNKGEYNADAKEYRLTWVVGEKALADGATPAAASMVYVKSDKLYSPYFYVTPNYADNAGCATVVVTQATYIGANTLLEPTITEQMLSEALDDSDFQTATSTDGSVKYDKLAADFWNTGANVAALVAFLEKNATYKLALRGETDPSKKEAAITIKPNDKRYYRADVANYSDDETTSMKITERNTFYHITGTITTLGAKSIEDAINSDNIDMLVQVVVKPWKYVVNNINM	not soluble
EDLGYFCVDNLPPSLLPKFLELMKESNSKMSKVALVMDLRGREFFDRLIEALDEMAENPWITPRILFLDAKDSILVTRYKETRRSHPLAATGLPLEGIALERELLEELKGRSQIIYDTSDMKPRDLREKIVKHFATNQGETFTVNVMSFGFKYGIPIDADLVFDVRFLPNPYYIESMRPLTGKDKEVSSYVMKWNETQKFNEKLIDLLSFMLPSYKREGKSQVVIAIGCTGGQHRSVTLAENLADYFKKDYYTHVTHRDIEKR	not soluble
MPDIFQQEARGWLRCGAPPFAGAVAGLTTKHGGESKGPFASLNMGLHVGDDRTDVVNNRRRLAEWLAFPLERWVCCEQVHGADIQKVTKSDRGNGAQDFATAVPGVDGLYTDEAGVLLALCFADCVPIYFVAPSAGLVGLAHAGWRGTAGGIAGHMVWLWQTREHIAPSDIYVAIGPAIGPCCYTVDDRVVDSLRPTLPPESPLPWRETSPGQYALDLKEANRLQLLAAGVPNSHIYVSERCTSCEEALFFSHRRDRGTTGRMLAFIGRREEWT	soluble
MGSDKIHHHHHHMMEGKDDADLFADLGLSESIASIPSYTFIRDGLNRIFASSNNIWNVLIGTRLTPPKPLSDYDLVHIHNPVPLAGMVSVALHCRIKGIPYCVTTHGISKVPKIPEELGLSRGQRIVFNHGFLRAYKNVLSNATHLFALSEGDQDTITEWFSDQSVSVLPNGVDLNVSPEAPEVDTKVDLPDKPVLLFVGRIMASKGVDDLLEAFSLLEHDCKLIIVGPMRDEHFKDQIHTLSDDVEYRGYVEQAELDALYRRADLFVFPTRSDVFPLVTLEAMAAGTPVVSTTVGGLPEQIPDQVGRLVPPKEPKTFAAAVDGMLSNEQLRTEMGRAGKSLVEERYSWEAVAKAAVTEYYRIVN	not soluble
MLTLKGKYNEAKVFTDNVDDNTIGQIITLCNQPFAKDSKIRIMPDTHGGKGCVIGTTMTIQDKIVPNLVGVDIGCGLYVVKLKPGKLKMDFDKLDKVIRERVPSGSKTHDKPVDEFDLEGIVAPIHHGWVARSIGTLGGGNHFIEVNQGSDGIYLVIHSGSRVLGKEIAEYHQEVAYKRLDILRKELKLDATAAKKRGNLEMANNLNGEREQVKLDYDLSYVTGVDLKNYLNDMEIAQKFAARNRYVMAQIILKAMKWDKAVVSAFDCVHNYIDIEHNMLRKGATSAQLGEQIIVPLNMREGSILATGKGNADWNYSAPHGAGRMLSRSKAKAQISLESYQAAMKDVWTTSVSKKTIDEAPKAYKSAKQLLADVEDTMEIQEIIKPLYNFKALEHHHHHH	soluble
MAAADIARQLGEDCRTVPLAGHVGFDSLPDQLVNKSVSQGFCFNILCVGETGLGKSTLMDTLFNTKFEGEPATHTQPGVQLQSNTYDLQESNVGLKLTIVSTVGFGDQINKEDSYKPIVEFIDAQFEAYLQEELKIRRVLHSYHDSRIHVCLYFIAPTGHSLKSLDLVTMKKLDSKVNIIPVIAKSDAISKSELAKFKIKITSELVSNGVQIYQFPTDDESVSEINGTMNAHLPFAVCSTEEVKIGNKMMRARQYPWGTVQVENEAHCDFVKLREMLIRVNMEDLREQTHARHYELYRRCKLEEMGFKDTDPDSKPFSLQETYEAKRNEFLGELQKKEEEMRQMFVQRVKEKEAELKEAEKELHEKFDRLKKLHQEEKKKLEDKKKCLDEEMNAFKQRKAAAELLQSQGSQAGGSQTLKRDKEKKNNPWLCIE	soluble
SEPGETIVEAMQREVKEEAGLLCEPVTLLSVEERGASWIRFVFLARPTGGVLKTSKDADSESLQAGWYPRVSLPTPLRAHDVLHLVELGAKFCQQAMHPLILPQELPCSVVCQRLVTTFTTVQSVWVLVGTVGTPHLPITACGFTPMEQRGGIKVAILRLLQECLTLHSLAVETKGLLGLQHLGRDHVDGVCLNVLVTVAFRNPGIQDEPPKIRGENYFWWKVLEEDLQKLLLYRLQESSVIPLSR	soluble
MGRKSQRKNATMFDSDDDTSSVSSSSTMPSERLLNPGMDEVTVLKDALLDQSLDALYEKREQALATIVDAFNSDLQYEFVEKKFATLLHQCLHCTKKGSTKETSLATHVIGLLALTVGLGDHAQEVLEESVTPLSQALKSGREILKITSILECLAVITFVGGNDPEQTEKSMQIIWQMIHPKLGSNVVATKPSPAVISAVVSSWAFLLTTVDRWTLGPKIFQETVTYLSTLLEKDDRSVRIAAGEALAVIYELGTLEKFAAEVKGSANGSVKEGGVSQEALMHMHGLKAKVTKQVRELSVEAGGKGSAKKDLNTQRNLFKDLVEFLEDGYAPETSTKVGGDYLQTSTWYQMIQLNYLKHFLGGGFIKHMQENEFLHDVFSFTPKKIGGGKLSNDEKRLFKSPNSALNKARTQFLAKQRMLAKNMNVGHYAATAMEEE	soluble
MDRVESLANQIFEDYKDYGVDRKEIVEKLRKLLIEFRVPENEAVRTIRNYIIREYGAPATVRRERITKIEEIKEPNKWVTVKAKVIQLWESSSPSIAQVGLIGDETGYIRFLVWTKAKKQPVDEGKSYIFRNVVVDDYGGVLRLNVTKISEIEEIEEDVKVKPPEELSEDVEVVGALVAIQQNSGLIQRCSVEGCNRVIKMGKCPEHGKTKAKDDLRIKGVLDDGYRTYEVIINEEGVESLTGINLEKAKKIAEETLDRGAVLTELKKMLLGKYLRVVGTATPRYLIAKHVEFFRPDIRKEIEKVKALLEEV	not soluble
MGSDKIHHHHHHMTFDANDVVRRLGARLKMRHLMLLLQIQQHGSLTRVAEHMASSQPAVTNALSELESMFGTPLFERTSRGMRPTALGSVVLERARAMLKDLDHLAREMEAVAAGHAAHLHIGVIPFISGQMLSAALKRLQSRMERRLTVTIHEGTSDQLLLQLKDHSVDLVIGRASSAIDLGQVSFEVLYQQQPRMIASRRLAAKLARTKLDWQKLHALDWILGAPHTPMREQVTDLFLSAGIAPPVPIVESYSSKLIGEMIASSDDAVSIVPADIAEEMVRIAGVAIVPYSLVWTLPPIALFTRAGESHAPTRDLLVQALREICRETYVEVPR	not soluble
MKKMLTFLTTCALSFGVSAQSWEETTEKARGQTVYFHAWGGSQEINSYLRWSADLLKSRYGVTLQHVKVTDIAETTTRLIAEKAAGKNEQGSVDLVWINGENFKSMKNNQLLYGPFVEDLPNWPKVDKSLPVDSDFSEPTEGLEAPWGVGQLVFIHDKQQVNNPPASFAELLSYAQAFPNRISYPQPPEFHGTSFLKAALIELTHYAPELNQAVEPATFEQLTQPLWQYLDELHAVAWRKGKQFPAGSAQMMQLLDDGQLDLAITFNPNAVFSAQATGKLAPTAQSYAMKKGALTNIHFLAIPWNANAKEGALVAINFLLSDEAQSRKGDLSIWGDPSILKPQFLTGSAKNTILFPAIAEPHPSWQSALEAEWQKRYGNSLK	not soluble
SSRGSGILPDEFMFAEFKRQCLSTENWVNKYDKNDMEVWVEQAPLSASINNKGNYSKVHKIRCQINIKDVSAATMYDVLHDGQYRKTWDPTMLESFDIARLAHNADVGYYSWICPKPLKNRDVVTLRSWQASENEYVIINFSVKHPKYPPRKDLVRAVSLMTGYLIKPTGPQSCTFTYLSQADPKGSLPKWVVNKASQVLAPKVLRSAHKAGQNYPAWKAANSPDHKPWLYPIQSELAMMDPAELSIQRGDSLENVDESSTRDAQENEDSS	soluble
MEIKERIQLLLSEMNRGVYEKEAEIGLSLLAALAGESILLLGPPGVAKSMVARRLKRAFVDARAFEYLMSRFSTPDEIFGPVSISRLKESDKYERAVDGYLPTADVVFLDEIWKAGPAIQNTLLTVINEKLFRNGDTELKLPLKLLVAASNELPTQGEGLEALWDRFLIRIISTCVKQEEAFYQMLLDDDDEEEQEACRWQISDEEYAGWQKEIRQIKVSAEVLSCITEIRKNLEKVEIQGSEVHRNVYVSDRRWKNIVKLLKASAFIHGRKEVCLTDLLPVYHCLWNEPEECADIRQIVVRALFVPYVKEIAAINLSLKSDLKVSRVREALEKARQKGDRRDDDLMIIDHFYYQIENHGTGNTYIFIVDYKNLKEYSPKDVPATGVMYADPLNPKRTIIRTFSDATKMKEQGAERVTLYRDEKNLYINGVRFPMRRLKRGEQQQLWLGNMTLTDRDYETELETAHGRIEKLVKDLSENIFISEEDKKGVAQYVATLRKEIAWARVDVRKLRYGDES	not soluble
